Numbering of substitutions follows the chain as printed. Names may count otherwise.
B1: RcSxph: Saxiphilin of Rana (Lithobates) catesbeianus, American bullfrog, SEQ ID NO:1 (protein)
chain: MAPTFQTALFFTIISLSFAAPNAKQVRWCAISDLEQKKCNDLVGSCNVPDITLVCVLRSSTEDCMTAIKDGQADAMFLDSGEVYEASKDPYNLKPIIAEPYSSNRDLQKCLKERQQALAKKMIGHYIPQCDEKGNYQPQQCHGSTGHCWCVNAMGEKISGTNTPPGQTRATCERHELPKCLKERQVALGGDEKVLGRFVPQCDEKGNYEPQQFHGSTGYSWCVNAIGEEIAGTKTPPGKIPATCQKHDLVTTCHYAVAMVKKSSAFQFNQLKGKRSCHSGVSKTDGWKALVTVLVEKKLLSWDGPAKESIQRAMSKFFSVSCIPGATQTNLCKQCKGEEGKNCKNSHDEPYYGNYGAFRCLKEDMGDVAFLRSTALSDEHSEVYELLCPDNTRKPLNKYKECNLGTVPAGTVVTRKISDKTEDINNFLMEAQKRQCKLFSSAHGKDLMFDDSTLQLALLSSEVDAFLYLGVKLFHAMKALTGDAHLPSKNKVRWCTINKLEKMKCDDWSAVSGGAIACTEASCPKGCVKQILKGEADAVKLEVQYMYEALMCGLLPAVEEYHNKDDFGPCKTPGSPYTDFGTLRAVALVKKSNKDINWNNIKGKKSCHTGVGDIAGWVIPVSLIRRQNDNSDIDSFFGESCAPGSDTKSNLCKLCIGDPKNSAANTKCSLSDKEAYYGNQGAFRCLVEKGDVAFVPHTVVFENTDGKNPAVWAKNLKSEDFELLCLDGSRAPVSNYKSCKLSGIPPPAIVTREESISDVVRIVANQQSLYGRKGFEKDMFQLFSSNKGNNLLFNDNTQCLITFDRQPKDIMEDYFGKPYYTTVYGASRSAMSSELISACTIKHC
B2: P727A: RcSxph mutant P727A (protein)
chain: B1 chain with P746A
B3: I782A: RcSxph mutant, alanine for isoleucine at position 782 (protein)
chain: B1 chain with I801A
B4: Y558I: RcSxph mutant, isoleucine for tyrosine at position 558 (protein)
chain: B1 chain with Y577I
B5: E540A: RcSxph mutant E540A (protein)
chain: B1 chain with E559A
B6: NpSxph: Saxiphilin of Nanorana parkeri, High Himalaya frog, SEQ ID NO:2 (protein, listed as Nanorana parkeri)
chain: MALTFHTALYFTIVGLSFAASDARHVQWCTISHLEQKKCNDLVGSCNVPDITLACVYRSSTENCMAAIKDGQADAMFLDSGDVYKASLDHYNLKPIIAEPYSLHRELTKCLKHRQESLGGDKMVKGRYIPQCDEKGNYHPVQCHASTGYCWCVNANGEKIEGTNTTPVQTPPTCPSQVLTKCLKERQEALGGKRIAIGRYIPQCDEQGNYRPMQCHGSTGYCWCVNAIGEKIEGTNTPPGNTQPTCQSHDWDTCHYAVAVVKNSSTFQFGQLKGKRSCHSGLSKTDGWNAPVNVFVEKKLLPWDGLAKGSIERAVSKFFSASCIPGATETNLCKQCIGEEEKKCKSSHDEPYYGDHGAFRCLQEDKGDVAFLKNTALPDEHSGVYELLCPDNTRKPLNKYKECNLGKVPADAVVTRKAGDKTKDINDFLLEAQKKKCKLFGSPHGKDLMFDDSTTHLAPLPSEIDAFFFLGVKWYNAMKALTEDVKLPSKNKVRWCTINKPEMMKCKDWAAVSGGAIACTEASCPEHCVKQILKGEADAVTLDVQYMYMALMCGLLPAVEEYPNKDDFHPCQIPGSTIKDFGTKRAVALVKKSNKDIKWNNLKGKKSCHTHVGDIPGWVIPAGLISNQNDNIDIESFFGESCAPGSDTNSKLCKLCIGDPENPKASTRCSLSDKEAYYGNEGAFRCLVEKGDVAFVPHTVVFANTDGKNPAEWAKDLKSEDFEILCLDGSRAPVTNYRGCNLSGLPPRAIVTREESVSDVVRILINQQSLYGRNGFEKDMFQMFSSAKGQNLLFNDETQCLIEFDRQPKDIMEDYFGVRYYTAVYSASRSAVPSELIPACTFKHC
B7: F561A: RcSxph mutant F561A (protein)
chain: B1 chain with F580A
B8: Y558A: RcSxph mutant, alanine for tyrosine at position 558 (protein)
chain: B1 chain with Y577A
B9: D785N: RcSxph mutant D785N (protein)
chain: B1 chain with D804N
B10: D794A: RcSxph mutant D794A (protein)
chain: B1 chain with D813A

Test system: PtNaV1.4
Experiment: Two-electrode voltage clamp: Sxph rescue of PtNaV1.4 from STX block in Xenopus oocytes
Type: cell-based, Phyllobates terribilis
Conditions: [Sxph]:[STX] ratio, 100 nM STX

| Molecule | Effective Rescue Ratio50 (ERR50) |
| --- | --- |
| B1 | 1.07±0.02 |
| B2 | > 4 |
| B3 | 0.87±0.02 |
| B4 | 0.81±0.01 |
| B5 | eliminated |

Test system: not listed separately
Experiment: Isothermal titration calorimetry (ITC) of STX into Sxph
Type: binding
Conditions: 25° C.
Experimental: ITC measurements were performed at 25° C. using a MicroCal PEAQ-ITC calorimeter (Malvern Panalytical). […]. This STX stock was diluted with the SEC buffer to prepare 100 μM or 300 μM STX solutions having a final buffer composition of 135 mM NaCl, 9 mM HEPES, pH 7.4. […]. The calorimetric experiment settings were: reference power, 5 μcal/s; spacing between injections, 150 s; stir speed 750 rpm; and feedback mode, high. Data were analyzed using MicroCal PEAQ-ITC Analysis Software (Malvern Panalytical) using a single binding site model. The heat of dilution from titrations of 100 μM STX in 135 mM NaCl, 9 mM HEPES, pH 7.4 into 135 mM NaCl, 9 mM HEPES, pH 7.4 was subtracted from each experiment to correct the baseline.

| Molecule | […]G | […]H (kcal mol^−1), binding enthalpy | […]S (cal mol^−1 K^−1) |
| --- | --- | --- | --- |
| B6 | -11.8 ± 0.1 kcal/mol | -18.7 ± 0.2 kcal/mol | −23.2 ± 0.8 cal mol^−1 K^−1 |
| B1 | -12.3 ± 0.5 kcal/mol | -16.1 ± 0.2 kcal/mol | −12.7 ± 0.9 cal mol^−1 K^−1 |
| B2 | -10.3 ± 0.2 kcal/mol | -11.5 ± 0.0 kcal/mol | −4.2 ± 0.9 cal mol^−1 K^−1 |
| B7 | -10.8 ± 0.1 kcal/mol | -12.7 ± 0.2 kcal/mol | −6.6 ± 0.9 cal mol^−1 K^−1 |
| B8 | -12.2 ± 0.2 kcal/mol | -15.3 ± 0.0 kcal/mol | −11.1 ± 1.1 cal mol^−1 K^−1 |
| B4 | -12.2 ± 0.3 kcal/mol | -15.5 ± 0.3 kcal/mol | −10.5 ± 0.6 cal mol^−1 K^−1 |

Same assay, conditions: 25° C., listed as NpSxph WT

| Molecule | […]H (kcal mol^−1), binding enthalpy |
| --- | --- |
| B6 | -18.7 ± 0.2 kcal/mol |

Same assay, conditions: 25° C., listed as RcSxph WT

| Molecule | […]H (kcal mol^−1), binding enthalpy |
| --- | --- |
| B1 | -16.1 ± 0.2 kcal/mol |

Test system: not listed separately
Experiment: Fluorescence polarization (FP) binding to fluorescein labeled STX
Conditions: […]G = RT ln (Kd(XSxph)/Kd(RcSxph)); T = 298K

| Molecule | […]G (kcal mol^−1) relative to RcSxph |
| --- | --- |
| B6 | -1.60 kcal/mol |
| B1 | 0 kcal/mol |

Same assay, conditions: […]G = RT ln (KdSxph mutant/KdSxph); T = 298K

| Molecule | […]G (kcal mol^−1) relative to wild-type RcSxph |
| --- | --- |
| B1 | 0 kcal/mol |
| B2 | 1.21 kcal/mol |
| B7 | 0.48 kcal/mol |
| B8 | -1.00 kcal/mol |
| B3 | -0.53 kcal/mol |
| B9 | -0.30 kcal/mol |
| B4 | -1.07 kcal/mol |
| B10 | 4.43 kcal/mol |
| B5 | 4.52 kcal/mol |

Test system: not given
Experiment: not given
Type: binding
Conditions: 1.1 μM Sxph, 0-20 μM STX

| Molecule | DTm ([…]Tm=TmSxph+20 μM toxin−TmSxph), STX |
| --- | --- |
| B6 | 3.6 °C |
| B1 | 3.6 °C |
| B3 | DTm increases relative to wild-type |
| B9 | DTm increases relative to wild-type |
| B10 | complete loss of the thermal shift |
| B5 | complete loss of the thermal shift |

Source: patent publication US20260063625A1, “COMPOSITIONS FOR AND METHODS OF DETECTING FOOD TOXINS” (priority 2022, published 2026)
